Test results reported in patent publication US20250043026A1 (SHANGHAI BAO PHARMACEUTICALS, published 2025).

T1: FcγRIIa-131R (Acro Biosystems) (UniProt P12318 36-218, limits assumed)
T1 construct: The 131H/R allotypes are those of the human receptor
T1 sequence (looked up): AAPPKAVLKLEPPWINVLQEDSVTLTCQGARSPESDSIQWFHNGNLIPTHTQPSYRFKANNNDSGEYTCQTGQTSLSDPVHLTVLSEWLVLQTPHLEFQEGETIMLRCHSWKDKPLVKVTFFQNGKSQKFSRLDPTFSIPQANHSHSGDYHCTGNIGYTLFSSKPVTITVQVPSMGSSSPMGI

T2: FcγRIIa-131H (Acro Biosystems) (UniProt P12318 36-218, limits assumed)
T2 construct: The 131H/R allotypes are those of the human receptor
T2 sequence (looked up): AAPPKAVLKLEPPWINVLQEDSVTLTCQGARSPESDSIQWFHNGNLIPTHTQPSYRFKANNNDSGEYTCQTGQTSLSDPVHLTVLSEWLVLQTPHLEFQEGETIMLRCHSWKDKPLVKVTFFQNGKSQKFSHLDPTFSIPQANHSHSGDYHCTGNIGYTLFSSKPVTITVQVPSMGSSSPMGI

T3: FcγRIIb (Acro Biosystems) (UniProt P31994 46-217, limits assumed)
T3 sequence (looked up): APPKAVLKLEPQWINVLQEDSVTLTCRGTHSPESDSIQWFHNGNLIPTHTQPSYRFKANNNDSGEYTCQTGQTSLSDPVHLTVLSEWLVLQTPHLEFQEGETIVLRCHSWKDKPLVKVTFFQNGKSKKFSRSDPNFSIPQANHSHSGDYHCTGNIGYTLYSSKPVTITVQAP

B1: Fc variant m1 (other)
chain: DKTHTCPPCPAPELLGGPSVFLFPPKPKDTLYITREPEVTCVVVDVSHEDPEVKFNWYVDGVEVHNAKTKPREEQYNSTYRVVSVLTVLHQDWLNGKEYKCKVSNKALPAPIEKTISKAKGQPREPQVYTLPPSRDELTKNQVSLTCLVKGFYPSDIAVEWESNGQPENNYKTTPPVLDSDGSFFLYSKLTVDKSRWQQGNVFSCSVMHEALKFHYTQKSLSLSP
modifications: N-glycan with 2,6-sialic acid (variant co-expressed with human GT and ST in ExpiCHO-S cells)
notes: also called control m1
B2: Fc variant m11 (other)
chain: DKTHTCPPCPAPELLGGPSVFLFPPKPKDTLYITREPEVTCVVVDVSHEDPEVKFNWYVDGVEVHNAKTKPREEQYNSTARVVSVLTVLHQDWLNGKEYKCKVSNKALPAPIEKTISKAKGQPREPQVYTLPPSRDELTKNQVSLTCLVKGFYPSDIAVEWESNGQPENNYKTTPPVLDSDGSFFLYSKLTVDKSRWQQGNVFSCSVMHEALKFHYTQKSLSLSP
modifications: N-glycan with 2,6-sialic acid (variant co-expressed with human GT and ST in ExpiCHO-S cells)
notes: Fc fragment variant of IgG1
B3: Fc variant m7 (other)
chain: DKTHTCPPCPAPELLGGPSVFLFPPKPKDTLYITREPEVTCVVEDVSHEDPEVKFNWYVDGVEVHNAKTKPREEQYNSTYRVVSVLTVLHQDWLNGKEYKCKVSNKALPAPIEKTISKAKGQPREPQVYTLPPSRDELTKNQVSLTCLVKGFYPSDIAVEWESNGQPENNYKTTPPVLDSDGSFFLYSKLTVDKSRWQQGNVFSCSVMHEALKFHYTQKSLSLSP
modifications: N-glycan with 2,6-sialic acid (variant co-expressed with human GT and ST in ExpiCHO-S cells)
notes: Fc fragment variant of IgG1
B4: Fc variant m6 (other)
chain: DKTHTCPPCPAPELLGGPSVFLFPPKPKDTLYITREPEVTCVVADVSHEDPEVKFNWYVDGVEVHNAKTKPREEQYNSTYRVVSVLTVLHQDWLNGKEYKCKVSNKALPAPIEKTISKAKGQPREPQVYTLPPSRDELTKNQVSLTCLVKGFYPSDIAVEWESNGQPENNYKTTPPVLDSDGSFFLYSKLTVDKSRWQQGNVFSCSVMHEALKFHYTQKSLSLSP
modifications: N-glycan with 2,6-sialic acid (variant co-expressed with human GT and ST in ExpiCHO-S cells)
notes: Fc fragment variant of IgG1
B5: Fc variant m9 (other)
chain: DKTHTCPPCPAPELLGGPSVFLFPPKPKDTLYITREPEVTCVVVDVSHEDPEVKFNWYVDGVEVHNAKTKPREEQNASTYRVVSVLTVLHQDWLNGKEYKCKVSNKALPAPIEKTISKAKGQPREPQVYTLPPSRDELTKNQVSLTCLVKGFYPSDIAVEWESNGQPENNYKTTPPVLDSDGSFFLYSKLTVDKSRWQQGNVFSCSVMHEALKFHYTQKSLSLSP
notes: Fc fragment variant of IgG1, co-expressed with human GT and ST

How the values were obtained:
FcRn (Acro Biosystems) = FcRn (Acro Biosystems) (human, UniProt P55899 24-297; P61769 21-119); experiment: BLI (Fortebio), FcRn loaded on HIS1K probe, pH 7.0
Sequence of FcRn (Acro Biosystems) (P55899 24-297 limits assumed, chain 1 of 2): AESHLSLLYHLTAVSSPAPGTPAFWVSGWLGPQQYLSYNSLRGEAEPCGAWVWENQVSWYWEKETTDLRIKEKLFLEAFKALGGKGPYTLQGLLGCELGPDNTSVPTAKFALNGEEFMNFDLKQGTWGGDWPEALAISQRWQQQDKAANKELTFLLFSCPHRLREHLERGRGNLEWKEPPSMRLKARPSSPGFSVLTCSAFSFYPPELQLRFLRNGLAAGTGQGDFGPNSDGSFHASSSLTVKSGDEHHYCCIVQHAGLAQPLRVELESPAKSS
Sequence of FcRn (Acro Biosystems) (P61769 21-119 limits assumed, chain 2 of 2): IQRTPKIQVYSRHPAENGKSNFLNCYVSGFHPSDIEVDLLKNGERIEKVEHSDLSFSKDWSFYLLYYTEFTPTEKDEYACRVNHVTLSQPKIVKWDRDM
Protocol: (§1) The variant proteins were tested for affinity to FcRn at pH 7.0. The affinity of the antibody fragment for the receptor was determined using Fortebio. FcRn (Acro Biosystems) was loaded at 0.8 nm with an HIS1K probe, bound to the variant protein at various concentrations for 60 seconds and dissociated for 300 seconds.

[1] = molecular target: T4, FcγRIIIa-158V (Acro Biosystems) (UniProt P08637 17-208); experiment: BLI (Fortebio), FcγR loaded on HIS1K probe, pH 7.0
T4 construct: The 158V/F allotypes are those of the human receptor
T4 sequence (P08637 17-208 F176V limits assumed): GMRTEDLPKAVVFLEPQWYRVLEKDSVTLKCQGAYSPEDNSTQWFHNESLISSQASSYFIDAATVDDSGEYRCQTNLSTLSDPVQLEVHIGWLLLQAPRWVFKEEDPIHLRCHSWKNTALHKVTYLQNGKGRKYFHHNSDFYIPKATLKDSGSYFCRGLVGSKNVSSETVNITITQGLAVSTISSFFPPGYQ
Protocol: as §1, with “to FcγRI, FcγRIIa-131H, FcγRIIa-131R, FcγRIIb, FcγRIIIa-158F, FcγRIIIa-158V” for “to FcRn”, “Fortebio. Different FcγR” for “Fortebio. FcRn”, “at 0.5” for “at 0.8”, “for 60” for “for 300”

[2] = molecular target: T1, FcγRIIa-131R (Acro Biosystems); experiment: BLI (Fortebio), FcγR loaded on HIS1K probe, pH 7.0
Protocol: as §1, with “to FcγRI, FcγRIIa-131H, FcγRIIa-131R, FcγRIIb, FcγRIIIa-158F, FcγRIIIa-158V” for “to FcRn”, “Fortebio. Different FcγR” for “Fortebio. FcRn”, “at 0.5” for “at 0.8”, “for 60” for “for 300”

FcγRI (Acro Biosystems) [3] = molecular target: T5, FcγRI (Acro Biosystems) (UniProt P12314 16-288, limits assumed); experiment: BLI (Fortebio), FcγR loaded on HIS1K probe, pH 7.0
T5 construct: also called CD64
T5 sequence (P12314 16-288 limits assumed): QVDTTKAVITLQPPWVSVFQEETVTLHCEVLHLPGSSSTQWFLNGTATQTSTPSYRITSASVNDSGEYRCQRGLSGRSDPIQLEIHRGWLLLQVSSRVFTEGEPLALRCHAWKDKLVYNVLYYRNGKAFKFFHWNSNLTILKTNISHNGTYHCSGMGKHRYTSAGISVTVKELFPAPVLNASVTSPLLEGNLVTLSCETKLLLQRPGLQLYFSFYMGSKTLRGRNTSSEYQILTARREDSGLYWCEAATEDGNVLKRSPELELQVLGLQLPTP
Protocol: as §1, with “to FcγRI, FcγRIIa-131H, FcγRIIa-131R, FcγRIIb, FcγRIIIa-158F, FcγRIIIa-158V” for “to FcRn”, “Fortebio. Different FcγR” for “Fortebio. FcRn”, “at 0.5” for “at 0.8”, “for 60” for “for 300”

[4] = molecular target: T2, FcγRIIa-131H (Acro Biosystems); experiment: BLI (Fortebio), FcγR loaded on HIS1K probe, pH 7.0
Protocol: as §1, with “to FcγRI, FcγRIIa-131H, FcγRIIa-131R, FcγRIIb, FcγRIIIa-158F, FcγRIIIa-158V” for “to FcRn”, “Fortebio. Different FcγR” for “Fortebio. FcRn”, “at 0.5” for “at 0.8”, “for 60” for “for 300”

[5] = molecular target: T3, FcγRIIb (Acro Biosystems); experiment: BLI (Fortebio), FcγR loaded on HIS1K probe, pH 7.0
Protocol: as §1, with “to FcγRI, FcγRIIa-131H, FcγRIIa-131R, FcγRIIb, FcγRIIIa-158F, FcγRIIIa-158V” for “to FcRn”, “Fortebio. Different FcγR” for “Fortebio. FcRn”, “at 0.5” for “at 0.8”, “for 60” for “for 300”

[6] = molecular target: T6, FcγRIIIa-158F (Acro Biosystems) (UniProt P08637 17-208); experiment: BLI (Fortebio), FcγR loaded on HIS1K probe, pH 7.0
T6 construct: The 158V/F allotypes are those of the human receptor
T6 sequence (P08637 17-208 limits assumed): as the sequence (P08637 17-208 F176V limits assumed) above, with V160F counted along it
Protocol: as §1, with “to FcγRI, FcγRIIa-131H, FcγRIIa-131R, FcγRIIb, FcγRIIIa-158F, FcγRIIIa-158V” for “to FcRn”, “Fortebio. Different FcγR” for “Fortebio. FcRn”, “at 0.5” for “at 0.8”, “for 60” for “for 300”

FcγRI (Acro Biosystems) [7] = molecular target: T5, FcγRI (Acro Biosystems); experiment: BLI (Fortebio), ratio of KD against m1
Protocol: as §1, with “to FcγRI, FcγRIIa-131H, FcγRIIa-131R, FcγRIIb, FcγRIIIa-158F, FcγRIIIa-158V” for “to FcRn”, “Fortebio. Different FcγR” for “Fortebio. FcRn”, “at 0.5” for “at 0.8”, “for 60” for “for 300”

[8] = molecular target: T4, FcγRIIIa-158V (Acro Biosystems); experiment: BLI (Fortebio), ratio of KD against m1
Protocol: as §1, with “to FcγRI, FcγRIIa-131H, FcγRIIa-131R, FcγRIIb, FcγRIIIa-158F, FcγRIIIa-158V” for “to FcRn”, “Fortebio. Different FcγR” for “Fortebio. FcRn”, “at 0.5” for “at 0.8”, “for 60” for “for 300”

[9] = molecular target: T1, FcγRIIa-131R (Acro Biosystems); experiment: BLI (Fortebio), ratio of KD against m1
Protocol: as §1, with “to FcγRI, FcγRIIa-131H, FcγRIIa-131R, FcγRIIb, FcγRIIIa-158F, FcγRIIIa-158V” for “to FcRn”, “Fortebio. Different FcγR” for “Fortebio. FcRn”, “at 0.5” for “at 0.8”, “for 60” for “for 300”

[10] = molecular target: T2, FcγRIIa-131H (Acro Biosystems); experiment: BLI (Fortebio), ratio of KD against m1
Protocol: as §1, with “to FcγRI, FcγRIIa-131H, FcγRIIa-131R, FcγRIIb, FcγRIIIa-158F, FcγRIIIa-158V” for “to FcRn”, “Fortebio. Different FcγR” for “Fortebio. FcRn”, “at 0.5” for “at 0.8”, “for 60” for “for 300”

[11] = molecular target: T3, FcγRIIb (Acro Biosystems); experiment: BLI (Fortebio), ratio of KD against m1
Protocol: as §1, with “to FcγRI, FcγRIIa-131H, FcγRIIa-131R, FcγRIIb, FcγRIIIa-158F, FcγRIIIa-158V” for “to FcRn”, “Fortebio. Different FcγR” for “Fortebio. FcRn”, “at 0.5” for “at 0.8”, “for 60” for “for 300”

[12] = molecular target: T6, FcγRIIIa-158F (Acro Biosystems); experiment: BLI (Fortebio), ratio of KD against m1
Protocol: as §1, with “to FcγRI, FcγRIIa-131H, FcγRIIa-131R, FcγRIIb, FcγRIIIa-158F, FcγRIIIa-158V” for “to FcRn”, “Fortebio. Different FcγR” for “Fortebio. FcRn”, “at 0.5” for “at 0.8”, “for 60” for “for 300”

Binder	kon (FcRn (Acro Biosystems)) [M⁻¹ s⁻¹]	Kd [1] [µM]	Kd [2] [µM]	Kd (FcγRI (Acro Biosystems) [3]) [µM]	Kd [4] [µM]	Kd [5] [µM]	Kd [6] [µM]	Fold change of m7 relative to m1 (FcγRI (Acro Biosystems) [7]) [fold]	Fold change of m6 relative to m1 [8] [fold]	Fold change of m6 relative to m1 [9] [fold]	Fold change of m6 relative to m1 (FcγRI (Acro Biosystems) [7]) [fold]	Fold change of m6 relative to m1 [10] [fold]	Fold change of m6 relative to m1 [11] [fold]	Fold change of m6 relative to m1 [12] [fold]
B1	214000	1.71	2.05	0.316	2.56	10.7	7.21							
B2	38300													
B3	221000			0.0638				4.95						
B4	212000	1.76	1.4	0.319	2.56	6.82	9.67		0.97	1.46	0.99	1	1.57	0.75
B5	208000													
